The text below walks through data of patent US20250296979A1.

This experiment deals with VEGF-C and VEGF-D. Put plainly: ELISA; after storage at -20 C or 5 C for up to 24 months. (An ELISA detects its analyte on a solid surface through an enzyme-linked reagent.)

The substance OPT-302 (Fc fusion) returned a decrease of binding activity against initiation of the stability study of 9 to 19%.
